Data from the domain aggregation screens of Martell et al. (2025).

assay: soluble fraction after stress (log2 fold change); higher = more stays soluble; pooled small domains, quantitative proteomics; settings: stress: 50 degC
Outline: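 The stress applied to every library was 50°C. These custom libraries of small protein domains were pooled and measured at high throughput with quantitative proteomics as the read-out. Aggregation propensity is expressed as the base-two logarithm of the fold change in how much of each protein remains soluble. The higher the value, the more of that protein stays in solution.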

In order of falling “soluble fraction (log2)” value:
1. HMTSEVLTNATIVKMVKAKLSDDIIIDEINNARVNFDVSPEGIKSLTAQNVTEPVIETMKKAVAAQESI  0.479
2. HMTVDTSELEEMIDDLIKEHPNEWERYSSGEKKVQGFFVGQVMKATSGQADGKAINQILSKRVKS  0.354
3. HMTRQEFIRKLQEALNGKLDAATIQDHLKFYDDYIIEEMRKGKSEQEVLELLGDPWAIAKTIVDAS  0.349
4. HMTTKYVAVHESKDGYWTIASKPSSKEDAEAMLGGTPKNEVGKVVTLEEAKAHKKTLGEEYLYE  0.272
5. HMTVKKEIAKVKPTPLGWLRVRETPSLNGAEITKVNTGESYDVLDKETGWIKIKVSETVEGWVSDAYIELS  0.236
6. HMTTGLETYPGKIAVVSDDFIDGEGRVQLDGALWRAKTKDHQQLKQGDHVTIVNVKGLTLTVMPDD  0.23
7. HMTYQTVRYGSTGSAVRQLQSALNQKGYQLSEDGIFGAKTRAAVRDYQKKNGLLLDGIAGSQTWNHLMS  0.224
8. HMTTIKLTQEDVEKIKSLPKRTFLIGNLQQTGLYDEKTRRFYYLDANGEWNGRLAIINTPPPPPPPP  0.199
9. HMTTQIPEEVQKRVNQFYEALDEEDYGEAKQILEELEKATAPDHPTLIQMRTRYEFDTMELR  0.186
10. HMTSMNNTEELIDMANKIIDNNPNMVLKYKEGRNVLDFFIGQVMKETKGRANPSATSKIFKDLLEK  0.169
11. HMTVDIADALRVLGLSDAPDWSDVRAAHRRAIVRTHPDAGGSAGDAARVNQAFDLLRKISGNGERPIPG  0.154
12. HMTSEPFYNPRRPQPYWTSETDRHTTYADAVRALAREFSETPEWVESNMGETNDLQEIRRNLSRVKSG  0.144
13. HMTVLVPNLTGKTLLEAEILLDQAGLKKGDVYSESNKNVPKDHIIRQKPAPNTKIQKGATIDIYRSLGPE  0.133
14. HMTTYSVDLGDIRAVADSDGKLVELTLHAAVTTHYSHSELADRLNLAFTALREEAQADYETRY  0.127
15. HMTTEPYILTRMPDGSIKAEPNLNYKGPEQKPGSNIQVKGADGRIYLVPIDGQGKPGKPQLVD  0.116
16. HMTSLAEQAYRHIRDKLSNGAFVPGEQLVNRVLATEIGVSVIPVREAINRLATEGLVKHVPGSGAFVRQ  0.0904
17. HMTSNSLNLKDEISAFLTKNAGISYSAERIAHALNMDNADQFTPIIQTLAQLEREKKVRVTDKGEFEAVIK  0.0897
18. HMTSSKISFIDPVNGGKVSVSLENSTLEKLQNRFGVNSVVRNEAGDVELKDKAQEFVAGWFADIAYTRG  0.0813
19. HMTTEIVRMKKDVKIGQEITAKDIEVVEVGAYNLPDEVIRSSEEVVGKYVSSELLKGEYVLPSKISDTP  0.0729
20. HMTSFDVMLKSAGANKLAVVKLVKELTGLGLKEAKDIVDAAPSKVKEGVSKEEAEELQKQLTGAGAEVEL  0.0299
21. HMTRPLVILEDVKFPSYNEIVSLTLPDGTRRGGQVLEVSGNKAIVQVFEGTSGIDVKDTHIELTKSS  0.0245
22. HMTVIARQIPPLVPRMLDGLEAFIKLDVPFEEKERLARVQMLRSSLDRDNLDTAEIFRAVLEAYNIELQY  0.0196
23. HMTRKQTIYEFLRRMKSQHGLDAVYSTEEIANAVGVSRANVSSDLNRLFEEQLVEKLPGWPVKYRA  0.0186
24. HMTRNEFMTALRKRLSHLPAEEQDAALKYYEEYFDEAESEEEAARQLGSPDAIADRILADYGAG  0.0132
25. HMTRQPSAKEHAVLTAVKEGLRRDGRAPTVRALADMTGAASTSTVQRRISALIDLGLLRRTDGTLEVVE  -0.000402
26. HMTYIQSNLKFLRNKMNISQEELAKRLFVTHQTVSNHENGKSQPNFEMIEKYASFFNVPFEDLIHKDLSL  -0.0206
27. HMTRIHEEVVNQVHDLVKEGRFKAGDQLPSERELAEIFKVSRTSVREALRALETQGLIISRTGMGNFIAD  -0.0448
28. HMTSKTLSAVEGEGLRLDKFLSNQLPELSRTKIQKMINDGLVFVNNTEAKASLILDGSEFIAYTVPD  -0.0541
29. HMTWDSFIGYTVTDVQKGYLGEITDVDETTINVLLRVDHKGEELLIPAVEELITEADHEARSLTVSLPEGL  -0.0571
30. HMTTAGTAIVQTGNSGKLNLREQAYANAGILGRYSNGTAVTVLQKGAAWSYVEVKGQKGYMMSKFLKFTS  -0.0681
31. HMTRAEVQALLEKQAKDFEVEVVHRGWKKTVQTPEFAGWYSQQPAEIKALAESDDPAVAIRMLDLFSGTK  -0.0852
32. HMTQTAVFSKGEQEYYFPLSKVLFFETDGNTINVHTADDIYETRYRLYELEEMLPGSFMRISKSAVVNTNR  -0.0904
33. HMTQHDIVPLMLKMVDVLTQFVELDIPFLQQERQTRLAALNAMMGRADVSLAEKYRRIMEAYQVETEYG  -0.0938
34. HMTSNKTVPYSELKGLISTGKIEYVGIGNTQIRAVSKSGAGIVTYTARRVIPDDTLIPELEKNGIAYGGI  -0.108
35. HMTRQKEAILALLTDSRGEALSASELLARLTRSGSSIGRTTVYRLLSQLVDDGVVRAWRDASRGITLYELS  -0.113
36. HMVAGGTVSRKLSIETGLPKRKSLIGSWLDQNSVWHNIISVRHRNGYGDGVNYGFYLRSLLTSEGNLAW  -0.114
37. HMTSLYDILGIAKTADSQTIKTAFKKKALLYHPDKNNGNLKKEEIFKKISTAYQILSDPKSRANYDLSIA  -0.115
38. HMTVDYDKFTKDTVVQHNKFGKGVIIMTSGDGEDKIASIAFQGLGVKRFSLAIAASNLKILGKVNED  -0.133
39. HMTVLPTENDAKALVGLNEDEAVKIIEGNGWTYRIGSRDGEQFMLTEDYSTSRLTLGIEKSIVVTATI  -0.151
40. HMTVNLPPKQKAAILLMSLPPEVSAQLFKELGPDEVHAITLEISKLPPISPDVRAQVIDEFLHSS  -0.152
41. HMTRRVIRAPAAGIMRSNVKLGDLVKEGDVIAWIGEHEIKAPLTGMVRGLLNDGLAVVGGFKIGDI  -0.175
42. HMTVAQEIEARRATIRSSDPAEMARFIRWLIMEGHTEPAADELKKYAENFPEASATTKQLQALLAAR  -0.177
43. HMTRILTEDDIVNFLIRQPDTAYIIAKSFNENERKVKELLDLLIKKNKVREEIVNGVVSYAVN  -0.199
44. HMTSHYTVLGVKETDTIEMIRTHYRKLILQFHPDKNQHLTEEERKKLEVKVLQIREAYEKIKKEK  -0.214
45. HMTRETTQAWWEARQTLPSGEQRSAASLSQEASHVRRFYRWAMQQGLTDRNPADWLPDVRQK  -0.232
46. HMTSESWAEKSRSLAAAGLIVMGRDAQLKIEGLTNLDPLIEAATASSTRLLTGQTIDELLTIVP  -0.265
47. HMTTGTVKWFNDAKGFGFITPDDRSVDVFVHYSNIVGQSGRRTLMEGERVEYEAIEGPKGPQATDVARA  -0.304
48. HMTPYEVLVYESLKQKILSGGYAAGEKIPEQSVSEELGVSRSPLRSAIRRLASEGLIEYYPYRGAFVKA  -0.347
49. HMTTGREGLIGAVGTVRQAIAPEGYVFVEGELWRAKSPAGPLEPGTTVRVIAIDGLTLTVMPAE  -0.348
50. HMTYSSESVRYRIKSLIDNETIDEILSDDKIVNILKSQGIDVARRTVAKYREAMGLASSIQRRREKKSA  -0.375
51. HMTVGEKIQKYRKDLDLSQEELGQKLLVSRQTISLWEKDQTVPTIDNLIRLREIFGVSVDEILGF  -0.409
52. HMTTMTTGQRIAAKRKEQGLSQENLGEQLGVSRQAIYKWESDASLPDIDKLIALSRLFGVSTDYLLLE  -0.41
53. HMTVVLPGESLTVNIIQEGKELGQGVGYLDDGTMVVIEDGRRYIDQTIEVTVTRVLQTVAGRMIFAQLT  -0.646
54. HMTTYTGVVTGSGVNVRSGAGTSYPVVGSKTMGDVVTITETVSADGMIWGKIDIGWISMNYVRM  -0.75
55. HMTVGEAHLEEVYLKVLKQVEEQGTALIRTTDVETGRPAAGIRRRYMRGTLPDEWVAKFEALPGWTWAPG  -0.879
56. HMTYFIADLIGLQVYTDSGELLGKVDDIYNSGSADIYVVKDELGKQILLPGIKDVIKQIDVDNEKIIVHLI  -0.885
57. HMTTTPAERQRTILRSLNRVDPVSVDALARLTGVSVVTIRRDLSDLASRDLIRRVHGGALLPTR  -0.917
58. HMTQLEVDLFERLITISGVGPRLALAVLSGLEPPDLLRAIQDSDIVRLQGIPGVGKKTAERISLELKDKLS  -0.963
59. HMTVEVFQSLVQTFREMSPRKAASILEELKRDLAVEILLHMPEDGVAAILARMDPARAARLTEQLALEKD  -0.979
60. HMTSIISLAKARSIALQKVPGATSKNIHLSLDDEDDKQVYEGEIKYKQMEYVFEIDAKTGTFLKWTSERD  -1.66
61. HMTQEAMRSLRKSLQNLSSRQQVIFMLRHYEGLALKEIAEHLGLETGTVKAHLHRAVTQLRKDLVE  -1.68
62. HMTQSGLTQWEFNMLRQALIEMLGEKPGSVFELARLLPLEQEKNVQALRFLLDHDDQFHLKDEYISFVKRT  -1.92
63. HMTTIFDNINGELRRRHLTQQDLAKTIEIDRRTWSKWQDKNDMPASVLLQIAKWLNVTLDYLTRD  -2.08
64. HMTVSIGSVIARERRLRGDTQQELAERLGVSKAAVSKWEVGQSIPDVTLLPRIAAYFSLTLDEL  -2.18
65. HMTPVEVNARGVHVDFSKGGILLEDVVRHLILEALRASEWKRGPAAQLLGISKETLRYRMEKYRLYPP  -2.26
66. HMTYNIPEHYQTIDVKEYVRKLVSDGDSDQIGRVEMELTEFETRNLFPVLKVLIYIIDTMRK  -2.45
67. HMTTKYMVLVNWVKEKVRTNELKTGEKLYSEHEFSRMFHMSRQTVRHGISILERENIVERRQGSGTFIKDA  -3.06
68. HMTQQYVEWKVYNVTTIKNKYGFRVKLIFQDGSDATQQKGGFTSKKAAEQARTEVIGQLYSNTYVVY  -4.49
